Columns and labels:
[1] = system: T1, XssQ (Synechocystis sp. PCC 6803), ORF:81bb7109; assay: EMSA; conditions: 30 min at room temperature, buffer, salt and pH not given (refers to Hirose 2010, Maeda 2014, Midorikawa 2009)
T1 sequence: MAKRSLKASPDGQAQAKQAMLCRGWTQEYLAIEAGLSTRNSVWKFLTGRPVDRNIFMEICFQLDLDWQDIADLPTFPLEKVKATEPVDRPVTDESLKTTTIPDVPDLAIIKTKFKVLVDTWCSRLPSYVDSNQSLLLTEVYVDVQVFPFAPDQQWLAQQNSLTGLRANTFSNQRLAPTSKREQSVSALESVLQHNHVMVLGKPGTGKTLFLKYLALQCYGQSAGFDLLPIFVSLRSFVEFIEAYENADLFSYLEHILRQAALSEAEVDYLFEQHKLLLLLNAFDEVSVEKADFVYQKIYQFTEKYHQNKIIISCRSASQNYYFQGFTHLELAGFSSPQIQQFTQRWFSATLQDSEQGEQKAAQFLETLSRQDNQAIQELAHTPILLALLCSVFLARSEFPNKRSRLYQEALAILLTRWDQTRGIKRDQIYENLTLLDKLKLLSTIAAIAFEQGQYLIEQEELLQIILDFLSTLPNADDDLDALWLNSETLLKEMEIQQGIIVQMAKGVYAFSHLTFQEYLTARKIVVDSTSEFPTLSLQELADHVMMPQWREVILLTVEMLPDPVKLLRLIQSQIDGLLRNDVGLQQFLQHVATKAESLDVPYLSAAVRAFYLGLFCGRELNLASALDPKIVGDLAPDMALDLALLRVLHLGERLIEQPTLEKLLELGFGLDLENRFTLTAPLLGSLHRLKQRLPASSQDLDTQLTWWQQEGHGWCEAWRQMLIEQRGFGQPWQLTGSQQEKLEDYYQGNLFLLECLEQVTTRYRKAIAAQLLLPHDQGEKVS

[2] = system: T1, XssQ (Synechocystis sp. PCC 6803), ORF:81bb7109; assay: competition; conditions: EMSA, 30 min at room temperature; buffer, salt and pH not given (refers to Hirose 2010, Maeda 2014, Midorikawa 2009)

Sequence: ATCTTTAAAGCCCCAGTCCCGATCGCCAGCGGTTAAACAGGTAAAAAAACAGAAGCAGAAATCTAGTGAGCAGGGGAAACTCAAAACCAAGCCGGGGCGCTCAAAGTCAGGGTCAGGCAAAAGGTCTAAAGTTAGACGCAAAGTTGTACATAGGGCAGGCACGAAATCAGACAGCGATCCATCAAGCTAAGAACAGGTTGCAATTGCCCATCTCACGATCGCCGTCACGCCCCCATGAACACTTCTTTCCT (double strand) [xssE upstream probe / native competitor]
- binding [1]: binds
- binding [2]: binds
